± gives the uncertainty stated by the source.
Assay: protein stability index of a GFP-peptide fusion (yeast GPS) (PSI 1-4); higher = more stable; sorted into four equal gates, so the index is relative within each strain
Outline: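 The protein stability index combines read frequencies across sorting gates, each weighted by its gate number and then summed. To obtain those frequencies, a pooled yeast library of GFP fusions to tiled 17-residue yeast protein peptides, on a plasmid also expressing Cherry, was grown to mid-log phase in leucine-free medium. The cells were sorted into four equal gates by GFP/Cherry ratio before plasmid amplification by PCR and Illumina sequencing.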

IFHPMIHYSWSFILYYR [YML103C/NUP188]
protein stability index (doa10∆): 1.74 ± 0.051 | protein stability index (pdr5∆): 1.68 ± 0.032 | protein stability index (san1∆): 1.69 ± 0.063 | protein stability index (ubr1∆): 1.98 ± 0.048

IFNSNKAKIIPGNGKHA [SIR4]
protein stability index (doa10∆): 2.34 ± 0.11 | protein stability index (pdr5∆): 3.13 ± 0.2 | protein stability index (san1∆): 1.9 ± 0.17 | protein stability index (ubr1∆): 2.2 ± 0.093

IFSYGPHIQKMLSILEI [POP6]
protein stability index (doa10∆): 2.27 ± 0.12 | protein stability index (pdr5∆): 1.93 ± 0.067 | protein stability index (san1∆): 2.56 ± 0.15 | protein stability index (ubr1∆): 2.24 ± 0.073

IFSYLQFTSSLFKALKV [RGR1]
protein stability index (doa10∆): 1.61 ± 0.059 | protein stability index (pdr5∆): 1.3 ± 0.052 | protein stability index (san1∆): 1.12 ± 0.11 | protein stability index (ubr1∆): 1.05 ± 0.056

IFTDFLPSSNGSSRIIA [RRP42]
protein stability index (doa10∆): 3.15 ± 0.085 | protein stability index (pdr5∆): 2.89 ± 0.084 | protein stability index (san1∆): 3.07 ± 0.073 | protein stability index (ubr1∆): 2.8 ± 0.069

IGEFNVSMYQNSSTSST [YDL088C/ASM4]
protein stability index (doa10∆): 3.61 ± 0.28 | protein stability index (pdr5∆): 1.97 ± 0.13 | protein stability index (ubr1∆): 2.17 ± 0.098

IGFTIKEYENHSGELMR [SMC1]
protein stability index (doa10∆): 2.53 ± 0.14 | protein stability index (pdr5∆): 2.79 ± 0.059 | protein stability index (san1∆): 2.06 ± 0.12 | protein stability index (ubr1∆): 2.86 ± 0.14

IGGMRVDENGDPIWQHQ [RET1]
protein stability index (doa10∆): 3.13 ± 0.2 | protein stability index (pdr5∆): 3.38 ± 0.19 | protein stability index (san1∆): 2.88 ± 0.26 | protein stability index (ubr1∆): 3.42 ± 0.092

IGHLIKTRFKGSQFIVV [SMC2]
protein stability index (doa10∆): 3.5 ± 0.12 | protein stability index (pdr5∆): 3.05 ± 0.084 | protein stability index (san1∆): 3.38 ± 0.087 | protein stability index (ubr1∆): 3.14 ± 0.08

IGQIIFSVRTKDSNKDV [RPL10]
protein stability index (doa10∆): 2.18 ± 0.05 | protein stability index (pdr5∆): 2.49 ± 0.048 | protein stability index (san1∆): 2.21 ± 0.065 | protein stability index (ubr1∆): 2.79 ± 0.051

IHEIRLNTLNNVVEIWV [SIR3]
protein stability index (doa10∆): 1.38 ± 0.051 | protein stability index (pdr5∆): 1.44 ± 0.046 | protein stability index (san1∆): 1.46 ± 0.086 | protein stability index (ubr1∆): 1.55 ± 0.038

IHIQETQEFSKNYTTET [SIR3]
protein stability index (doa10∆): 3.39 ± 0.1 | protein stability index (pdr5∆): 3.15 ± 0.11 | protein stability index (san1∆): 3.4 ± 0.16 | protein stability index (ubr1∆): 3.31 ± 0.069

IHLNELLTNDESAFENL [SNF12]
protein stability index (doa10∆): 2.73 ± 0.057 | protein stability index (pdr5∆): 2.91 ± 0.052 | protein stability index (san1∆): 2.88 ± 0.067 | protein stability index (ubr1∆): 3.03 ± 0.053

IHSGVLSSIESDLKKRE [YMR153W/NUP53]
protein stability index (doa10∆): 3.07 ± 0.084 | protein stability index (pdr5∆): 3.17 ± 0.073 | protein stability index (san1∆): 3.1 ± 0.066 | protein stability index (ubr1∆): 3.09 ± 0.074

IIAVKGSGSRLNRLPAA [RPL23A]
protein stability index (doa10∆): 1.42 ± 0.051 | protein stability index (pdr5∆): 1.17 ± 0.049 | protein stability index (san1∆): 1.23 ± 0.099 | protein stability index (ubr1∆): 1.42 ± 0.049

IIDHIPGHSLLLSIKLP [SNF5]
protein stability index (doa10∆): 1.96 ± 0.066 | protein stability index (pdr5∆): 1.61 ± 0.045 | protein stability index (san1∆): 1.53 ± 0.11 | protein stability index (ubr1∆): 2.23 ± 0.04

IIEQLSIAAERYDYSDE [YCG1]
protein stability index (doa10∆): 2.51 ± 0.052 | protein stability index (pdr5∆): 2.78 ± 0.063 | protein stability index (san1∆): 2.22 ± 0.06 | protein stability index (ubr1∆): 2.59 ± 0.032

IIFNYVPGPGTKLIQYE [CSL4]
protein stability index (pdr5∆): 2.99 ± 0.1 | protein stability index (ubr1∆): 2.84 ± 0.098

IIGTFSDSYKVSLQNFS [RRP40]
protein stability index (doa10∆): 2.11 ± 0.099 | protein stability index (pdr5∆): 1.79 ± 0.079 | protein stability index (san1∆): 2.24 ± 0.11 | protein stability index (ubr1∆): 1.96 ± 0.054

IIKGTDVYSPEKGSWEQ [BRR2]
protein stability index (doa10∆): 3.1 ± 0.06 | protein stability index (pdr5∆): 3.35 ± 0.075 | protein stability index (san1∆): 3.24 ± 0.11 | protein stability index (ubr1∆): 3.25 ± 0.13

IIKMTIPYAAKLLFQEL [RET1]
protein stability index (doa10∆): 2.18 ± 0.1 | protein stability index (pdr5∆): 2.08 ± 0.12 | protein stability index (san1∆): 1.75 ± 0.22 | protein stability index (ubr1∆): 1.9 ± 0.073

IIKYPVAFDNINTHIET [SNF2]
protein stability index (doa10∆): 2.45 ± 0.14 | protein stability index (pdr5∆): 2.71 ± 0.11 | protein stability index (san1∆): 2 ± 0.16 | protein stability index (ubr1∆): 1.85 ± 0.067

IILKTRQINKLIDSLPG [SRB7]
protein stability index (doa10∆): 2.31 ± 0.071 | protein stability index (pdr5∆): 2.11 ± 0.047 | protein stability index (san1∆): 2.62 ± 0.067 | protein stability index (ubr1∆): 2.51 ± 0.058

IIPTTLEEQQQLEDESS [YML103C/NUP188]
protein stability index (doa10∆): 1.88 ± 0.081 | protein stability index (pdr5∆): 1.66 ± 0.08 | protein stability index (san1∆): 2.67 ± 0.081 | protein stability index (ubr1∆): 2.86 ± 0.099

IISSNENALIELKNELA [YIL149C/MLP2]
protein stability index (doa10∆): 2.53 ± 0.15 | protein stability index (pdr5∆): 2.93 ± 0.077 | protein stability index (san1∆): 2.71 ± 0.14 | protein stability index (ubr1∆): 3.07 ± 0.12

IKDEIDDPFTKINTRGA [SWI1]
protein stability index (doa10∆): 1.96 ± 0.22 | protein stability index (pdr5∆): 1.58 ± 0.1 | protein stability index (san1∆): 1.53 ± 0.13 | protein stability index (ubr1∆): 2.12 ± 0.16

IKKKKKKSKNGTISKTG [SRP14]
protein stability index (doa10∆): 3.16 ± 0.19 | protein stability index (pdr5∆): 3.17 ± 0.15 | protein stability index (san1∆): 3.11 ± 0.1 | protein stability index (ubr1∆): 3.54 ± 0.11

IKLDRWLMEGSYQKAWD [RPN12]
protein stability index (doa10∆): 2.72 ± 0.11 | protein stability index (pdr5∆): 2.8 ± 0.098 | protein stability index (san1∆): 2.9 ± 0.11 | protein stability index (ubr1∆): 2.68 ± 0.11

IKNLTVQLSPSNPQHII [RGR1]
protein stability index (doa10∆): 2.6 ± 0.052 | protein stability index (pdr5∆): 2.74 ± 0.05 | protein stability index (san1∆): 2.42 ± 0.062 | protein stability index (ubr1∆): 2.67 ± 0.049

IKSKADAWVSAAHYNRE [PRP8]
protein stability index (doa10∆): 1.79 ± 0.078 | protein stability index (pdr5∆): 1.48 ± 0.065 | protein stability index (san1∆): 2.6 ± 0.06 | protein stability index (ubr1∆): 1.7 ± 0.11

IKSQYYSRISKLKQLLD [YIL149C/MLP2]
protein stability index (doa10∆): 1.2 ± 0.095 | protein stability index (pdr5∆): 1.87 ± 0.11 | protein stability index (san1∆): 1.64 ± 0.12 | protein stability index (ubr1∆): 1.45 ± 0.068

IKTFLVDLTSSNFADSA [YDL116W/NUP84]
protein stability index (doa10∆): 2.3 ± 0.089 | protein stability index (pdr5∆): 2.82 ± 0.094 | protein stability index (san1∆): 2.78 ± 0.1 | protein stability index (ubr1∆): 2.76 ± 0.069

IKTQQHILPEVPPVENF [TAF14]
protein stability index (doa10∆): 2.21 ± 0.1 | protein stability index (pdr5∆): 2.42 ± 0.082 | protein stability index (san1∆): 2.89 ± 0.086 | protein stability index (ubr1∆): 2.95 ± 0.073

ILGMLSLADNEIALKGL [YCS4]
protein stability index (doa10∆): 2.42 ± 0.053 | protein stability index (pdr5∆): 2.08 ± 0.068 | protein stability index (san1∆): 2.11 ± 0.089 | protein stability index (ubr1∆): 2.25 ± 0.056

ILHVRAQYCYKNGLYQE [SRP72]
protein stability index (doa10∆): 2.86 ± 0.073 | protein stability index (pdr5∆): 2.94 ± 0.095 | protein stability index (san1∆): 3.1 ± 0.068 | protein stability index (ubr1∆): 3.25 ± 0.057

ILKEEFPKIDSLAQNDC [RPN5]
protein stability index (doa10∆): 3.19 ± 0.15 | protein stability index (pdr5∆): 3.24 ± 0.091 | protein stability index (san1∆): 3.22 ± 0.056 | protein stability index (ubr1∆): 3.38 ± 0.065

ILMQQQMMARMAQTATQ [SRP54]
protein stability index (doa10∆): 2.34 ± 0.14 | protein stability index (pdr5∆): 2.22 ± 0.1 | protein stability index (san1∆): 2.08 ± 0.12 | protein stability index (ubr1∆): 2.63 ± 0.1

ILQILNLMILNTKVPVD [YML103C/NUP188]
protein stability index (doa10∆): 1.34 ± 0.1 | protein stability index (pdr5∆): 1.51 ± 0.07 | protein stability index (san1∆): 1.12 ± 0.29 | protein stability index (ubr1∆): 1.34 ± 0.1

ILSDSPLELSAPIGKHY [DIS3]
protein stability index (doa10∆): 1.71 ± 0.13 | protein stability index (ubr1∆): 2.39 ± 0.17

ILSVKLAELINMTTIAD [SRB6]
protein stability index (doa10∆): 2.6 ± 0.072 | protein stability index (pdr5∆): 2.46 ± 0.076 | protein stability index (san1∆): 2.75 ± 0.069 | protein stability index (ubr1∆): 2.85 ± 0.068

ILTPESQLKKSKAQQKT [RPL7A]
protein stability index (doa10∆): 3.02 ± 0.078 | protein stability index (pdr5∆): 3.02 ± 0.12 | protein stability index (san1∆): 2.98 ± 0.12 | protein stability index (ubr1∆): 2.98 ± 0.056

ILYGLVDKGAIMKNKDF [YJL039C/NUP192]
protein stability index (pdr5∆): 2.32 ± 0.2 | protein stability index (san1∆): 3.06 ± 0.21 | protein stability index (ubr1∆): 1.58 ± 0.15

IMRILKSNGLAPEIPED [RPS13]
protein stability index (doa10∆): 2.14 ± 0.09 | protein stability index (pdr5∆): 3.09 ± 0.15 | protein stability index (san1∆): 1.9 ± 0.22 | protein stability index (ubr1∆): 2.91 ± 0.057

Reference: the supplement of paper PMC9732359
